Measured values as given in the supplement of paper PMC10724198.
± gives the standard deviation of the averaged measurements.

System: Saccharomyces cerevisiae
Experiment: protein stability index of tFT-peptide fusion (C-terminal peptide) (PSI (0-1 scale)); higher = more stable (slower turnover)
Details: temperature: 30 C
Procedure: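 MPS profiling in S. cerevisiae of the yeast C-terminome library: the last 12 aa of each annotated ORF are fused to the C-terminus of a sfGFP-mCherry timer, after a GGGS linker. Cells are FACS-sorted into 8 mCherry/sfGFP bins and deep-sequenced. PSI runs from 0 (unstable) to 1 (stable); wild type and das1Δ backgrounds, two technical replicates each.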

[1] = genetic background: das1 deletion

Sequence | protein stability index [1] | protein stability index (genetic background: wild type)
KADIACAGKQLI [YHL042W C-terminal 12 aa] | 0.676 ± 0.0096 | 0.698 ± 0.0097
TTDNVTVMVVFL [PTC1 C-terminal 12 aa] | 0.489 ± 0.0077 | 0.5071 ± 0.0035
VEHRYHKSVSRL [YBR012C C-terminal 12 aa] | 0.816 ± 0.046 | 0.759 ± 0.053
GDLLSLKGEIMQ [ALK2 C-terminal 12 aa] | 0.689 ± 0.022 | 0.691 ± 0.029
GCVKMYKFDLND [MET30 C-terminal 12 aa] | 0.713 ± 0.044 | 0.7322 ± 0.0023
SYKSNQPSSQNT [MDM36 C-terminal 12 aa] | 0.672 ± 0.017 | 0.675 ± 0.0096
IQAMLKSLDSLK [SNL1 C-terminal 12 aa] | 0.691 ± 0.034 | 0.66 ± 0.03
ADMTKEFERESS [GLN1 C-terminal 12 aa] | 0.724 ± 0.018 | 0.701 ± 0.038
NISNGSSTQDMK [HPR1 C-terminal 12 aa] | 0.703 ± 0.029 | 0.704 ± 0.065
KVNENWKRYGYK [FDC1 C-terminal 12 aa] | 0.6814 ± 0.0052 | 0.703 ± 0.027
KDFQVNKEIKPY [SIR4 C-terminal 12 aa] | 0.713 ± 0.052 | 0.7378 ± 0.00099
LKDLEKLGWKDE [YGR054W C-terminal 12 aa] | 0.695 ± 0.013 | 0.666 ± 0.022
ELPNGKVIYSRK [ERJ5 C-terminal 12 aa] | 0.687 ± 0.067 | 0.745 ± 0.025
MTRLKKLLTLEW [ZIP2 C-terminal 12 aa] | 0.817 ± 0.047 | 0.733 ± 0.046
AKEESSDSENET [CDC123 C-terminal 12 aa] | 0.6497 ± 0.004 | 0.703 ± 0.091
SAITKNLLDDFV [RAV1 C-terminal 12 aa] | 0.735 ± 0.05 | 0.745 ± 0.066
EMNNIIAASRRH [RPL36A C-terminal 12 aa] | 0.701 ± 0.0077 | 0.713 ± 0.048
SRFRTNIAFITQ [YJL015C C-terminal 12 aa] | 0.71 ± 0.012 | 0.70081 ± 0.00066
DATSTLSSQPLD [MSP1 C-terminal 12 aa] | 0.7244 ± 0.0059 | 0.695 ± 0.037
ILKKNPDYREEE [RPN1 C-terminal 12 aa] | 0.696 ± 0.0054 | 0.7029 ± 0.0058
EDSHYGNAKKVT [FPS1 C-terminal 12 aa] | 0.708 ± 0.0097 | 0.688 ± 0.011

Sequence | protein stability index [1] | protein stability index (genetic background: wild type)
DAEGQENAASSE [RIM1 C-terminal 12 aa] | 0.67571 ± 0.00047 | 0.67 ± 0.0069
ASQAKNSIEDDV [GTR2 C-terminal 12 aa] | 0.721 ± 0.021 | 0.689 ± 0.031
CGKCHSVYKVNA [RPS31 C-terminal 12 aa] | 0.70314 ± 0.00059 | 0.624 ± 0.041
RSLSSRSKECSK [NOC3 C-terminal 12 aa] | 0.71 ± 0.0075 | 0.672 ± 0.045
YKKVQWAKVLEQ [SFG1 C-terminal 12 aa] | 0.709 ± 0.022 | 0.7255 ± 0.0061
YGCIALTVVFIL [YAR069C C-terminal 12 aa] | 0.232 ± 0.0061 | 0.223 ± 0.0052
VLSVISAVFGLI [PLB1 C-terminal 12 aa] | 0.674 ± 0.016 | 0.672 ± 0.045
MGCIKGTVKTKY [ABZ2 C-terminal 12 aa] | 0.668 ± 0.039 | 0.756 ± 0.14
DNRPIYKRFFSS [HXT11 C-terminal 12 aa] | 0.7072 ± 0.0066 | 0.511 ± 0.018
NVAAAEASKKGN [YET1 C-terminal 12 aa] | 0.728 ± 0.033 | 0.685 ± 0.053
GVETIAKCIDLL [CAR2 C-terminal 12 aa] | 0.71 ± 0.017 | 0.698 ± 0.011
DTVKILTELFNL [SEC53 C-terminal 12 aa] | 0.707 ± 0.011 | 0.732 ± 0.062
RKVVFERMETLE [MRPS16 C-terminal 12 aa] | 0.6857 ± 0.0044 | 0.683 ± 0.031
DDDGDYFEHDEL [KAR2 C-terminal 12 aa] | 0.688 ± 0.017 | 0.6679 ± 0.00099
RLLSLAQPPVNF [YER165C-A C-terminal 12 aa] | 0.7584 ± 0.0037 | 0.703 ± 0.04
IEEAASSLGFKR [PES4 C-terminal 12 aa] | 0.726 ± 0.027 | 0.701 ± 0.023
LTARRKNRQQWE [COX23 C-terminal 12 aa] | 0.704 ± 0.022 | 0.692 ± 0.024
PEEETNWFSGHG [PRP31 C-terminal 12 aa] | 0.745 ± 0.032 | 0.73 ± 0.025
SSQQLTLRPPLG [YGL109W C-terminal 12 aa] | 0.6922 ± 0.0068 | 0.669 ± 0.0086
TSTITTTITMTL [SHE10 C-terminal 12 aa] | 0.636 ± 0.041 | 0.652 ± 0.042
